Reference: patent publication US20220204611A1 (Amgen, published 2022)

T1: human TREM2 (human, UniProt Q9NZC2 19-174, limits assumed)
T1 sequence: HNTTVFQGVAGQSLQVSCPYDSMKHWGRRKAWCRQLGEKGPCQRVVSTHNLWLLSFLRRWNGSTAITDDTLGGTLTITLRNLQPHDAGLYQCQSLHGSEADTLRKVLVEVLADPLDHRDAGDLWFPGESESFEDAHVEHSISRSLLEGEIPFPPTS


Tests used:
human TREM2 [1] = target: T1, human TREM2; test: yeast-displayed Fab FACS, 2nd screen 10 nM
human TREM2 [2] = target: T1, human TREM2; test: yeast-displayed Fab FACS, 2nd screen 2 nM
human TREM2 [3] = target: T1, human TREM2; test: yeast-displayed Fab FACS, 1st screen 10 nM

Binder | binding signal fold over 6E7 parental (human TREM2 [1]) [fold] | binding signal fold over 6E7 parental (human TREM2 [2]) [fold] | binding signal fold over 6E7 parental (human TREM2 [3]) [fold]
V49 (Fab, V domains shown) VH: EVQLVQSGAEVKKPGESLKISCKGSGYSFNSYWIAWVRQMPGKGLEWMGTIYPGDSDTRLSPSFQGQVTISADKSISTAYLQWSSLKASDTAMYFCARSRTFYYDSSDYFDYWGQGTLVTVSS VL: DIQMTQSPSSVSASVGDRVTITCRASQGISSWLAWYQQKPGKAPKLLIYAASSRQNGVPSRFSGSGSGTDFTLTISSLQPEDFATYFCQQADSYPRTFGQGTKLEIK | 6.58 | 5.02 | 6.51
V52 (Fab, V domains shown) VH: EVQLVQSGAEVKKPGESLKISCKGSGYSFESYWIAWVRQMPGKGLEWMGIIYPGDSDTRYSPSFQGQVTISADKSISTAYLQWSSLKASDTAMYFCARGRTFYYDSSDYFDYWGQGTLVTVSS VL: DIQMTQSPSSVSASVGDRVTITCRASQGISSWLAWYQQKPGKAPKLLIYAASSLQRGVPSRFSGSGSGTDFTLTISSLQPEDFATYFCQQADRFPRTFGQGTKLEIK | 3.09 | 1.78 | 3
V51 (Fab, V domains shown) VH: EVQLVQSGAEVKKPGESLKISCKGSGYSFTSYWIAWVRQMPGKGLEWMGIIYPGDSDVRYSPSFQGQVTISADKSISTAYLQWSSLKASDTAMYFCARGRTFYYDSSDYFDNWGQGTLVTVSS VL: DIQMTQSPSSVSASVGDRVTITCRASQGISSWLAWYQQKPGKAPKLLIYAASSRQNGVPSRFSGSGSGTDFTLTISSLQPEDFATYFCQQADSFPRTFGQGTKLEIK | 3.18 | 1.83 | 2.81
V62 (Fab, V domains shown) VH: EVQLVQSGAEVKKPGESLKISCKGSGYSFGSYWIAWVRQMPGKGLEWMGIIYPGDSDTRYAPSFQGQVTISADKSISTAYLQWSSLKASDTAMYFCARQRTFYYDSSGYFDYWGQGTLVTVSS VL: DIQMTQSPSSVSASVGDRVTITCRASQGISSWLAWYQQKPGKAPKLLIYAASSLQRGVPSRFSGSGSGTDFTLTISSLQPEDFATYFCGQADSFPRTFGQGTKLEIK | 2.89 | 1.87 | 2.49
V61 (Fab, V domains shown) VH: EVQLVQSGAEVKKPGESLKISCKGSGYSFSSYWIAWVRQMPGKGLEWMGIIYPGDSDTRYNPSFQGQVTISADKSISTAYLQWSSLKASDTAMYFCARGRTFYYDSSDYFDYWGQGTLVTVSS VL: DIQMTQSPSSVSASVGDRVTITCRASQGISSWLAWYQQKPGKAPKLLIYAASSLVNGVPSRFSGSGSGTDFTLTISSLQPEDFATYFCQQADSLPRTFGQGTKLEIK | 5.22 | 3.63 | 5.08
V60 (Fab, V domains shown) VH: EVQLVQSGAEVKKPGESLKISCKGSGYHFTSYWIAWVRQMPGKGLEWMGIIYPGDSDVRYSPSFQGQVTISADKSISTAYLQWSSLKASDTAMYFCARQRTFYYDSSDYSDYWGQGTLVTVSS VL: DIQMTQSPSSVSASVGDRVTITCRASQGISSWLAWYQQKPGKAPKLLIYAASSLQRGVPSRFSGSGSGTDFTLTISSLQPEDFATYFCGQADSFPRTFGQGTKLEIK | 3.63 | 3.35 | 3.26
V53 (Fab, V domains shown) VH: EVQLVQSGAEVKKPGESLKISCKGSGYSFTSYWIAWVRQMPGKGLEWMGIIYPGDSDTRYSPHFQGQVTISADKSISTAYLQWSSLKASDTAMYFCARQRTFYYDSSDYFDYWGQGTLVTVSS VL: DIQMTQSPSSVSASVGDRVTITCRASQGISSWLAWYQQKPGKAPKLLIYAASSLQNGVPSRFSGSGSGTDFTLTISSLQPEDFATYFCQQADSFPRTFGQGTKLEIK | 1.17 | 0.66 | 1.25
V63 (Fab, V domains shown) VH: EVQLVQSGAEVKKPGESLKISCKGSGYSFRSYWIAWVRQMPGKGLEWMGIIYPGDSDTRYSPSFQGQVTISADKSISTAYLQWSSLKASDTAMYFCARSRTFYYDSSDYFDYWGQGTLVTVSS VL: DIQMTQSPSSVSASVGDRVTITCRASQGISSWLAWYQQKPGKAPKLLIYAASSLQRGVPSRFSGSGSGTDFTLTISSLQPEDFATYFCQQADRFPRTFGQGTKLEIK | 3.71 | 4.91 | 3.76

The next lines start with the values.

binding signal fold over 6E7 parental (human TREM2 [1]) [fold] | binding signal fold over 6E7 parental (human TREM2 [2]) [fold] | binding signal fold over 6E7 parental (human TREM2 [3]) [fold] | Binder
1.38 | 0.83 | 1.43 | V77 (Fab, V domains shown) VH: EVQLVQSGAEVKKPGESLKISCKGSGYSFTSYWIAWVRQMPGKGLEWMGIIYPGDSDTRYSPSFQGQVTISADKSISTAYLQWSSLKASDTAMYFCARQRTFYYDSSDYFDYWGQGTLVTVSS VL: DIQMTQSPSSVSASVGDRVTITCRASQGISSWLAWYQQKPGKAPKLLIYAASSRQNGVPSRFSGSGSGTDFTLTISSLQPEDFATYFCQQADSFPRTFGQGTKLEIK
4.01 | 2.5 | 3.64 | V72 (Fab, V domains shown) VH: EVQLVQSGAEVKKPGESLKISCKGSGYSFTSYWIGWVRQMPGKGLEWMGIIYPGDSDTRYSPSFQGQVTISADKSISTAYLQWSSLKASDTAMYFCARGRTFYYDSSDYFDYWGQGTLVTVSS VL: DIQMTQSPSSVSASVGDRVTITCRASQGISSWLAWYQQKPGKAPKLLIYAASSLVNGVPSRFSGSGSGTDFTLTISSLQPEDFATYFCQQADSYPRTFGQGTKLEIK
5.44 | 4.17 | 5.12 | V73 (Fab, V domains shown) VH: EVQLVQSGAEVKKPGESLKISCKGSGYSFGSYWIAWVRQMPGKGLEWMGIIYPGDSDTRYSPGFQGQVTISADKSISTAYLQWSSLKASDTAMYFCARGRTFYYDSSDYFDYWGQGTLVTVSS VL: DIQMTQSPSSVSASVGDRVTITCRASQGISSWLAWYQQKPGKAPKLLIYAASSRQNGVPSRFSGSGSGTDFTLTISSLQPEDFATYFCQQADSYPRTFGQGTKLEIK
1.62 | 1.45 | 1.44 | V84 (Fab, V domains shown) VH: EVQLVQSGAEVKKPGESLKISCKGSGYGFTSYWIAWVRQMPGKGLEWMGIIYPGDSDTRYSPSFQGQVTISADKSISTAYLQWSSLKASDTAMYFCARQRTFYYDSSDYSDYWGQGTLVTVSS VL: DIQMTQSPSSVSASVGDRVTITCRASQGISSWLAWYQQKPGKAPKLLIYGASSLQNGVPSRFSGSGSGTDFTLTISSLQPEDFATYFCQQADSFPRTFGQGTKLEIK
4.93 | 4.34 | 4.57 | V76 (Fab, V domains shown) VH: EVQLVQSGAEVKKPGESLKISCKGSGYSFGSYWIAWVRQMPGKGLEWMGIIYPGDSDTRYSPEFQGQVTISADKSISTAYLQWSSLKASDTAMYFCARQRTFYYDSSDYSDYWGQGTLVTVSS VL: DIQMTQSPSSVSASVGDRVTITCRASQGISSWLAWYQQKPGKAPKLLIYAASSLQKGVPSRFSGSGSGRDFTLTISSLQPEDFATYFCQQADSFPRTFGQGTKLEIK
5.37 | 5.41 | 5.41 | V85 (Fab, V domains shown) VH: EVQLVQSGAEVKKPGESLKISCKGSGYSFRSYWIAWVRQMPGKGLEWMGTIYPGDSDTRYSPSFQGQVTISADKSISTAYLQWSSLKASDTAMYFCARSRTFYYDSSDYFDYWGQGTLVTVSS VL: DIQMTQSPSSVSASVGDRVTITCRASQGISSWLAWYQQKPGKAPKLLIYAASSRQNGVPSRFSGSGSGTDFTLTISSLQPEDFATYFCQQADSFPRTFGQGTKLEIK
5.02 | 5.17 | 4.8 | V86 (Fab, V domains shown) VH: EVQLVQSGAEVKKPGESLKISCKGSGYSFGSYWLAWVRQMPGKGLEWMGIIYPGDSDTRYSPSFEGQVTISADKSISTAYLQWSSLKASDTAMYFCARSRTFYYDSSDYFDYWGQGTLVTVSS VL: DIQMTQSPSSVSASVGDRVTITCRASQGISSWLAWYQQKPGKAPKLLIYAASSRQNGVPSRFSGSGSGTDFTLTISSLQPEDFATYFCQQADSFPRTFGQGTKLEIK
4.01 | 2.54 | 3.94 | V74 (Fab, V domains shown) VH: EVQLVQSGAEVKKPGESLKISCKGSGYSFASYWIAWVRQMPGKGLEWMGIIYPGDSDVRYSPSFQGQVTISADKSISTAYLQWSSLKASDTAMYFCARGRTFYYDSSDYFDYWGQGTLVTVSS VL: DIQMTQSPSSVSASVGDRVTITCRASQGISSWLAWYQQKPGKAPKLLIYAASSLQLGVPSRFSGSGSGTDFTLTISSLQPEDFATYFCQQADSFPRTFGQGTKLEIK
4.52 | 3.74 | 4.64 | V75 (Fab, V domains shown) VH: EVQLVQSGAEVKKPGESLKISCKGSGYSFTSYWIAWVRQMPGKGLEWMGIIYPGDSDTRYSPSFQGQVTISADKSISTAYLQWSSLKASDTAMYFCARGRTFYYDSSDYFDYWGQGTLVTVSS VL: DIQMTQSPSSVSASVGDRVTITCRASQGISSWLAWYQQKPGKAPKLLIYAASSLQAGVPSRFSGSGSGTDFTLTISSLQPEDFATYFCQQADSYPRTFGQGTKLEIK
